Where a chain is given by its changes, count along the chain named. In names and notes the source's numbering stands.

Assay [1] deals with T1, human LAG-3 expressed on cells (human, UniProt P18627 23-525).
T1 construct: whole, on cells; Treated as one protein; the host cell is named under assay; also called LAG-3-expressing CHO cells; LAG-3-transfected CHO cells
T1 sequence (looked up): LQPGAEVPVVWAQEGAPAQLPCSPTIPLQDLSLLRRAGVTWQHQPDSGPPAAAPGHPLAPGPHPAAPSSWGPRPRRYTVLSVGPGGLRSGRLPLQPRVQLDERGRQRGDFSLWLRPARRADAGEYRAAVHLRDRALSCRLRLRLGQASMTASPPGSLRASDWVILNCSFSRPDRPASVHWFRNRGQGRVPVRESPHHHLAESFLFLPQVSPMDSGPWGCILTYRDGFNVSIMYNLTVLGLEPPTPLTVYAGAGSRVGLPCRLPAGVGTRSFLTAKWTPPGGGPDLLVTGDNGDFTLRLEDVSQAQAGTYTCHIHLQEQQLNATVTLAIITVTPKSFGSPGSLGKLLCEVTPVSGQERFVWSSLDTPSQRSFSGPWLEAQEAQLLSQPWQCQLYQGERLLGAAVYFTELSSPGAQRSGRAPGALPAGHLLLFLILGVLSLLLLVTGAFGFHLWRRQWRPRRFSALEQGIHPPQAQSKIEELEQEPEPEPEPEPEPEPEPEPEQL
Kind of assay: FACS, human LAG-3 transfected 300.19 cells; human LAG-3 transfected 300.19 cells. For orientation: In flow cytometry, cells or beads pass a laser one at a time.

Assay [2] addresses T1, human LAG-3 expressed on cells. Nature of the assay: FACS, human LAG-3 transfected CHO cells; human LAG-3 transfected CHO cells.
For assay [3], the target named is T2, LAG-3-huIgG1 Fc fusion protein (human, UniProt P18627 23-434, limits assumed).
T2 construct: also called LAG-3-Ig; soluble LAG-3-Ig; not shown: human IgG1 Fc
T2 sequence (looked up): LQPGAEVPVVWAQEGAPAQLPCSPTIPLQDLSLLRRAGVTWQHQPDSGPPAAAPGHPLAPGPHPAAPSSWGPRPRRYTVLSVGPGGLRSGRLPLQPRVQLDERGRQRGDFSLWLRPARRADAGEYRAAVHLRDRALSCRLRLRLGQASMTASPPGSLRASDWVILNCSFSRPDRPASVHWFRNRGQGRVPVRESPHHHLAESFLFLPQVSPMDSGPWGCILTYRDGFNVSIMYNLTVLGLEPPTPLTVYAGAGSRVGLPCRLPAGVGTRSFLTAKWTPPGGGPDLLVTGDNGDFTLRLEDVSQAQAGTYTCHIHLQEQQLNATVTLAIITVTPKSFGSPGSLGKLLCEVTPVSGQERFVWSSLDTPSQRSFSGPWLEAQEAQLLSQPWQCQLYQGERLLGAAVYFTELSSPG
Nature of the assay: competition binding assay, LAG-3-Ig binding to MHC class II on Raji cells.

Assay [4] has as its target T1, human LAG-3 expressed on cells. Kind of assay: FACS, human T cells; human T cells.
The target is the same in assay [5]. Kind of assay: FACS competition: serial dilutions of the test mAb against a constant concentration of FITC-labeled murine BAP050 on LAG-3-expressing CHO cells; MFI of bound labelled mAb.

B1: murine anti-LAG-3 monoclonal antibody BAP050 (antibody, V domains shown)
VH: QIQLVQSGPELKKPGETVKISCKASGFTLTNYGMNWVRQTPGKGLKWMGWINTDTGEPTYADDFKGRFAFSLETSASTASLQINNLKNADTATYFCARNPPYYYGTNNAEAMDYWGQGTAVTVSS
VL: DIQMTQTTSSLSASLGDRVTISCSSSQDISNYLNWYQQKPDGTVKVLIYYTSTLHLGVPSRFSGSGSGTDYSLTISNLELEDIATYYCQQYYNLPWTFGGGTKLEIK
notes: also called murine mAb; parent murine mAb
Turning to B1, the Kd turned out to be 13.6 nM in assay [1], 0.2 nM in assay [2] and 0.26 nM in assay [4]. The half-inhibitory concentration (IC50) in assay [3] came to 2.3 nM.

B2: BAP050-hum13-Ser (antibody, human IgG4 S228P, kappa, V domains shown)
VH: QVQLVQSGAEVKKPGASVKVSCKASGFTLTNYGMNWVRQAPGQGLEWMGWINTDTGEPTYADDFKGRFVFSLDTSVSTAYLQISSLKAEDTAVYYCARNPPYYYGTNNAEAMDYWGQGTTVTVSS
VL: DIQMTQSPSSLSASVGDRVTITCSSSQDISNYLNWYQQKPGKAPKLLIYYTSTLHLGIPPRFSGSGYGTDFTLTINNIESEDAAYYFCQQYYNLPWTFGQGTKVEIKR
notes: C84S in VHFW3 of BAP050-hum13; IgG4(S228P)/kappa; also called clone No. 13S (printed 135); huBAP050(Ser) clone
B2: in assay [5], the binding result is given as “binds”.

B3: BAP050-hum12-Ser (antibody, human IgG4 S228P, kappa, V domains shown)
VH: B2 VH with P41R, G44R, M48I
VL: EIVLTQSPDFQSVTPKEKVTITCSSSQDISNYLNWYQQKPGQAPRLLIYYTSTLHLGVPSRFSGSGSGTDFTLTISSLQPEDFATYYCQQYYNLPWTFGQGTKVEIKR
notes: C84S in VHFW3 of BAP050-hum12; IgG4(S228P)/kappa; also called huBAP050(Ser) clone
As for B3, the binding result in assay [5] is reported as “binds”.

B4: BAP050-hum11-Ser (antibody, human IgG4 S228P, kappa, V domains shown)
VH: B2 VH with P41R, G44R, M48I
VL: DIQMTQSPSSLSASVGDRVTITCSSSQDISNYLNWYLQKPGQSPQLLIYYTSTLHLGVPSRFSGSGSGTEFTLTISSLQPDDFATYYCQQYYNLPWTFGQGTKVEIKR
notes: C84S in VHFW3 of BAP050-hum11; IgG4(S228P)/kappa; also called clone No. 11S
For the molecule B4, the binding result in assay [5] is “binds”.

B5: BAP050-hum05-Ser (antibody, human IgG4 S228P, kappa)
heavy: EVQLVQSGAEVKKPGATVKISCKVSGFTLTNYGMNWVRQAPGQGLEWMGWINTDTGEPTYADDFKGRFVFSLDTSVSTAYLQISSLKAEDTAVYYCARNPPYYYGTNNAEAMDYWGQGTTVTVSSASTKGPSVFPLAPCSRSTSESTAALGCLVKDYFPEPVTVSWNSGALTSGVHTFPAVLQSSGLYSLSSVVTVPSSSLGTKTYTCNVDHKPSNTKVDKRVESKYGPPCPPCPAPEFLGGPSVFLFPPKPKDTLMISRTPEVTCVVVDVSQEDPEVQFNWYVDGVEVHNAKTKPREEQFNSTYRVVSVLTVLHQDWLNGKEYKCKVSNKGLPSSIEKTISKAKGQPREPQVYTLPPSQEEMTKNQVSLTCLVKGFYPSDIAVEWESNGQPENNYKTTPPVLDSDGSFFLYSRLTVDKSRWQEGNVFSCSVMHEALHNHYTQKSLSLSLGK
light: EIVLTQSPATLSLSPGERATLSCSSSQDISNYLNWYQQKPGKAPKLLIYYTSTLHLGVPSRFSGSGSGTDFTFTISSLEAEDAATYYCQQYYNLPWTFGQGTKVEIKRTVAAPSVFIFPPSDEQLKSGTASVVCLLNNFYPREAKVQWKVDNALQSGNSQESVTEQDSKDSTYSLSSTLTLSKADYEKHKVYACEVTHQGLSSPVTKSFNRGEC
notes: C84S in VHFW3 of BAP050-hum05; IgG4(S228P)/kappa; also called clone No. 5S; huBAP050(Ser) clone
In the case of B5, the binding result in assay [5] is on record as “binds”.

One may read the Kd as the concentration at which binding is half-saturated. Higher therefore signals lower affinity. In general, IC50 refers to the concentration that gives 50% inhibition. Lower therefore signals inhibition by little substance.

The values are drawn from patent US20180340025A1 (Novartis, published 2018).
